Data from patent publication US20190382474A1 (SURFACE ONCOLOGY, published 2019).
Several values for one entry are separate records, joined by “and”; a condition that tells them apart may be missing. Equal values may be shown once.

T1: recombinant human IL-27 (human, UniProt Q14213 21-229; Q8NEV9 29-243)
T1 construct: Bought from R&D Systems (Cat. 2526-IL); also called hIL-27; rhIL-27
T1 sequence 1: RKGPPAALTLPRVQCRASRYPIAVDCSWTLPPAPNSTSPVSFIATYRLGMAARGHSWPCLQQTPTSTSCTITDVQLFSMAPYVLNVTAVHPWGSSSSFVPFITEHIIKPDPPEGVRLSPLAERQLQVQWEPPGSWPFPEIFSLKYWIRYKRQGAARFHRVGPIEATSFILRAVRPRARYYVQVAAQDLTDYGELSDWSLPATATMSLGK
T1 sequence 2: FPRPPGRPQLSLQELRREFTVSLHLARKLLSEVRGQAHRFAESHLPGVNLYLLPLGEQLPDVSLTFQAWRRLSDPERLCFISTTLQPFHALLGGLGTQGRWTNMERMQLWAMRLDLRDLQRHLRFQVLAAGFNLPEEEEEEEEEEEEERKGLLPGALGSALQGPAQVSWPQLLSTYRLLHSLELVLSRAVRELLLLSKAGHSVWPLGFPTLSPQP


Key:
recombinant human IL-27 [1] = target: T1, recombinant human IL-27; assay: SPR, hIL-27 on CM5 chip, bivalent analyte model
Protocol: (§1) The antibodies were further characterized by surface plasmon resonance (SPR). Kinetic experiments were performed on a Biacore T200 (GE Healthcare, Uppsala, Sweden). All experiments were run at 25° C. with HBS-P+ running buffer (pH 7.4) (GE Healthcare, Little Chalfont, UK) using hIL-27 (R&D Systems, Abingdon, UK). Human IL-27 (hIL-27) antigen was captured on a CM5 chip to ˜16 RU. Immobilization was carried out at a protein concentration of 1 μg/mL in 10 mM acetate buffer pH 5.0. A three point, three-fold dilution range from 3.3 nM to 30 nM of antibody diluted in HBS-P+ buffer without regeneration between each concentration was used. The association phase for the three injections of increasing concentrations of antibody was monitored for 75 seconds each time and a single dissociation phase was measured for 250 seconds following the last injection of antibody. Regeneration of the hIL-27 surface was conducted using a single injection of 2M MgCl₂ for 120 s. Multiple repeats (n=4) of the chimeric antibody were performed throughout the assay to check the stability of the surface and analyte over the kinetic cycles.
(§2) Both 1:1 binding and bivalent analyte models were used to analyze the data due to the bivalent nature of the antibody. The results from the 1:1 binding model analysis are summarized in Table 4 and results from the bivalent analyte model are summarized in Table 5.

recombinant human IL-27 [2] = target: T1, recombinant human IL-27; assay: SPR, hIL-27 on CM5 chip, bivalent analyte model (ka1)
Protocol: as §1, §2

recombinant human IL-27 [3] = target: T1, recombinant human IL-27; assay: SPR, hIL-27 on CM5 chip, bivalent analyte model (kd1)
Protocol: as §1, §2

recombinant human IL-27 [4] = target: T1, recombinant human IL-27; assay: SPR (Biacore T200), hIL-27 on CM5 chip, single cycle, 1:1 model
Protocol: as §1, §2

recombinant human IL-27 [5] = target: T1, recombinant human IL-27; assay: column 'Affinity hIL-27 (M)', property (i); method not given, paragraph 885 names SPR (BIACORE 2000)

Row | ka2 (recombinant human IL-27 [1]) | kd2 (recombinant human IL-27 [1]) [s⁻¹] | kon (recombinant human IL-27 [2]) | koff (recombinant human IL-27 [3]) | Kd (recombinant human IL-27 [4]) | Relative KD to Ab7.1 (recombinant human IL-27 [4]) | koff (recombinant human IL-27 [4]) [s⁻¹] | kon (recombinant human IL-27 [4]) [M⁻¹ s⁻¹] | Kd (recombinant human IL-27 [5]) [nM] | Binder
1 | 0.021 1/RUs | 0.046 | 670000 M⁻¹ s⁻¹ | 0.0022 s⁻¹ | 1 nM | 1 | 0.0015 | 1.4e+06 | – | Ab7.1 (antibody, human IgG1, kappa, human IgG1/kappa chimera from HEK293 EBNA cells; also called chimeric Ab7.1 antibody; chimeric antibody) heavy: not shown light: DIQMTQSPASLSASVGETVTITCRASENIYSYLAWYQQKQGKSPQLLVYNAETLTEGVPSRFSGSGSGTQFSLKINSLQPEDFGNYYCQHHYGTPLTFGAGTKLDLKRTVAAPSVFIFPPSDEQLKSGTASVVCLLNNFYPREAKVQWKVDNALQSGNSQESVTEQDSKDSTYSLSSTLTLSKADYEKHKVYACEVTHQGLSSPVTKSFNRGEC
2 | 0.035 1/RUs | 0.087 | 700000 M⁻¹ s⁻¹ | 0.0027 s⁻¹ | 1.2 nM | 1.2 | 0.0018 | 1.5e+06 | – | Ab7.2 (antibody, human IgG1, kappa, V domains shown, human IgG1/kappa) VH: EVKLVESGGGLVQPGGSLKLFCAASGFTFTSYSMSWVRQTPEKRLEWVAYISYDGGSAYYPDTVKGRFSISRDNAKKTLYLQMSSLKSEDTAMYYCARHGDYDDDDAMDYWGQGTSVTVSS VL: DIQMTQSPSSLSASVGDRVTITCRASENIYSYLAWYQQKQGKAPKLLVYNAETLTEGVPSRFSGSGSGTDFTLTISSLQPEDFANYYCQHHYGTPLTFGQGTKLDIKR
3 | 0.029 1/RUs | 0.063 | 750000 M⁻¹ s⁻¹ | 0.0022 s⁻¹ | 0.96 nM | 0.9 | 0.0015 | 1.5e+06 | – | Ab7.3 (antibody, human IgG1, kappa, V domains shown, human IgG1/kappa) VH: EVKLVESGGGLVQPGGSLRLSCAASGFTFTSYSMSWVRQAPGKGLEWVAYISYDGGSAYYPDTVKGRFTISRDNSKKTLYLQMSSLKSEDTAMYYCARHGDYDDDDAMDYWGQGTSVTVSS VL: DIQMTQSPASLSASVGETVTITCRASENIYSYLAWYQQKQGKSPQLLVYNAETLTEGVPSRFSGSGSGTQFSLKINSLQPEDFGNYYCQHHYGTPLTFGAGTKLDLKR
4 | 0.039 1/RUs | 0.09 | 580000 M⁻¹ s⁻¹ | 0.0029 s⁻¹ | 1.5 nM | 1.5 | 0.0019 | 1.3e+06 | – | Ab7.17 (antibody, human IgG1, kappa, V domains shown, human IgG1/kappa) VH: EVQLVESGGGLVQPGGSLRLSCAASGFTFTSYSMSWVRQAPGKGLEWVAYISYDGGSAYYPDTVKGRFTISRDNSKNTLYLQMNSLRAEDTAVYYCARHGDYDDDDAMDYWGQGTLVTVSS VL: DIQMTQSPSSLSASVGDRVTITCRASENIYSYLAWYQQKPGKAPKLLVYNAETLTEGVPSRFSGSGSGTDFTLTISSLQPEDFANYYCQHHYGTPLTFGQGTKLEIKR
5 | 0.084 1/RUs | 0.2 | 600000 M⁻¹ s⁻¹ | 0.0025 s⁻¹ | 1.4 nM | 1.4 | 0.0018 | 1.3e+06 | – | Ab7.10 (antibody, human IgG1, kappa, V domains shown, human IgG1/kappa) VH: EVQLVESGGGLVQPGGSLRLSCAASGFTFTSYSMSWVRQAPGKGLEWVAYISYDGGSAYYPDTVKGRFTISRDNSKNTLYLQMSSLKSEDTAMYYCARHGDYDDDDAMDYWGQGTLVTVSS VL: DIQMTQSPSSLSASVGDRVTITCRASENIYSYLAWYQQKPGKAPKLLVYNAETLTEGVPSRFSGSGSGTDFTLTISSLQPEDFATYYCQHHYGTPLTFGQGTKLEIKR
6 | 0.11 1/RUs | 0.29 | 750000 M⁻¹ s⁻¹ | 0.0026 s⁻¹ | 1.2 nM | 1.2 | 0.0018 | 1.5e+06 | – | Ab7.12 (antibody, human IgG1, kappa, V domains shown, human IgG1/kappa) VH: EVKLVESGGGLVQPGGSLRLSCAASGFTFTSYSMSWVRQAPGKGLEWVAYISYDGGSAYYPDTVKGRFTISRDNSKKTLYLQMNSLRAEDTAVYYCARHGDYDDDDAMDYWGQGTLVTVSS VL: DIQMTQSPSSLSASVGDRVTITCRASENIYSYLAWYQQKQGKAPKLLVYNAETLTEGVPSRFSGSGSGTDFTLTISSLQPEDFANYYCQHHYGTPLTFGQGTKLDIKR
7 | 0.028 1/RUs | 0.068 | 680000 M⁻¹ s⁻¹ | 0.0027 s⁻¹ | 1.2 nM | 1.2 | 0.0018 | 1.5e+06 | – | Ab7.5 (antibody, human IgG1, kappa, V domains shown, human IgG1/kappa) VH: EVKLVESGGGLVQPGGSLRLSCAASGFTFTSYSMSWVRQAPGKGLEWVAYISYDGGSAYYPDTVKGRFTISRDNSKKTLYLQMSSLKSEDTAMYYCARHGDYDDDDAMDYWGQGTSVTVSS VL: DIQMTQSPSSLSASVGDRVTITCRASENIYSYLAWYQQKPGKAPKLLVYNAETLTEGVPSRFSGSGSGTDFTLTISSLQPEDFANYYCQHHYGTPLTFGQGTKLEIKR
8 | – | – | 720000 M⁻¹ s⁻¹ and 710000 M⁻¹ s⁻¹ | 0.0026 s⁻¹ and 0.0025 s⁻¹ | 1.2 nM and 1.3 nM | 1.2 | 0.0018 | 1.5e+06 | – | Ab7.4 (antibody, human IgG1, kappa, V domains shown, human IgG1/kappa) VH: EVKLVESGGGLVQPGGSLRLSCAASGFTFTSYSMSWVRQAPGKGLEWVAYISYDGGSAYYPDTVKGRFTISRDNSKKTLYLQMSSLKSEDTAMYYCARHGDYDDDDAMDYWGQGTSVTVSS VL: DIQMTQSPSSLSASVGDRVTITCRASENIYSYLAWYQQKQGKAPKLLVYNAETLTEGVPSRFSGSGSGTDFTLTISSLQPEDFANYYCQHHYGTPLTFGQGTKLDIKR
9 | 0.064 1/RUs | 0.15 | 580000 M⁻¹ s⁻¹ | 0.0027 s⁻¹ | 1.5 nM | 1.4 | 0.0018 | 1.3e+06 | – | Ab7.8 (antibody, human IgG1, kappa, V domains shown, human IgG1/kappa) VH: EVQLVESGGGLVQPGGSLRLSCAASGFTFTSYSMSWVRQAPGKGLEWVAYISYDGGSAYYPDTVKGRFTISRDNSKNTLYLQMSSLKSEDTAMYYCARHGDYDDDDAMDYWGQGTLVTVSS VL: DIQMTQSPSSLSASVGDRVTITCRASENIYSYLAWYQQKQGKAPKLLVYNAETLTEGVPSRFSGSGSGTDFTLTISSLQPEDFANYYCQHHYGTPLTFGQGTKLDIKR
10 | 0.043 1/RUs | 0.11 | 590000 M⁻¹ s⁻¹ | 0.0028 s⁻¹ | 1.5 nM | 1.5 | 0.0019 | 1.3e+06 | – | Ab7.9 (antibody, human IgG1, kappa, V domains shown, human IgG1/kappa) VH: EVQLVESGGGLVQPGGSLRLSCAASGFTFTSYSMSWVRQAPGKGLEWVAYISYDGGSAYYPDTVKGRFTISRDNSKNTLYLQMSSLKSEDTAMYYCARHGDYDDDDAMDYWGQGTLVTVSS VL: DIQMTQSPSSLSASVGDRVTITCRASENIYSYLAWYQQKPGKAPKLLVYNAETLTEGVPSRFSGSGSGTDFTLTISSLQPEDFANYYCQHHYGTPLTFGQGTKLEIKR
11 | – | – | – | – | – | – | – | – | 94.4 | SRF541 (antibody, V domains shown) VH: QVQLQESGPGLVKPSETLSLTCTVSGGSISSYYWSWIRQPPGKGLEWIGSIYYSGSTNYNPSLKSRVTISVDTSKNQFSLKLSSVTAADTAVYYCAREVDRDDVAFDIWGQGTMVTVSS VL: not shown
12 | – | – | – | – | – | – | – | – | 0.52 | SRF414 (antibody, V domains shown, also called SRF414-A; SRF414-B) VH: QVQLQQWGAGLLKPSETLSLTCAVYGGSFSRYYWSWIRQPPGKGLEWIGSIDYSGSTEYNPSLKSRVTISVDTSKNQFSLKLSSVTAADTAVYYCARDGVYYDSSDLGFDIWGQGTMVTVSS VL: not shown
13 | – | – | – | – | – | – | – | – | 0.74 | SRF573 (antibody, V domains shown) VH: QVQLVQSGAEVKKPGSSVKVSCKASGGTFSSYAISWVRQAPGQGLEWMGGIIPIFGTANYAQKFQGRVTITADESTSTAYMELSSLRSEDTAVYYCARSYYSSRWHYYYYMDVWGKGTTVTVSS VL: DIQMTQSPSSVSASVGDRVTITCRASQGISSWLAWYQQKPGKAPKLLIYAASNLQSGVPSRFSGSGSGTDFTLTISSLQPEDFATYYCQQADDLPLTFGGGTKVEIKR
14 | – | – | – | – | – | – | – | – | 1.98 | SRF583 (antibody, V domains shown) VH: QLQLQESGPGLVKPSETLSLTCTVSGGSISSSSYYWGWIRQPPGKGLEWIGSISYSGSTYYNPSLKSRVTISVDTSKNQFSLKLSSVTAADTAVYYCAREEYSFSYLDYWGQGTTVTVSS VL: DIQMTQSPSSVSASVGDRVTITCRASQGISSWLAWYQQKPGKAPKLLIYAASNLQSGVPSRFSGSGSGTDFTLTISSLQPEDFATYYCQQALLFPPTFGGGTKVEIKR
